According to PMC8930771, “Structural basis of phosphatidylinositol 3-kinase C2α function” (Nature Structural & Molecular Biology, 2022):

B1: PI3KC2α^ΔN+ΔPX−C2 WT (mouse PI3KC2α amino acids 377–1,400) [mouse] / GST-distal C2 (PI3KC2α amino acids 1,561–1,686) [mouse] (parent complex)
chain 1: VQNDEVAAFCQSIMKLKTKFPYTDHCTNPGYLLSPVTVQRNMCGENASVKVSIEIEGLQLPVTFTCDVSSTVEIIIMQALCWVHDDLNQVDVGSYILKVCGQEEVLQNNHCLGSHEHIQNCRKWDTEIKLQLLTLSAMCQNLARTAEDDEAPVDLNKYLYQIEKPYKEVMTRHPVEELLDSYHYQVELALQTENQHRAVDQVIKAVRKICSALDGVETPSVTEAVKKLKRAVNLPRNKSADVTSLSGSDTRKNSTKGSLNPENPVQVSMDHLTTAIYDLLRLHANSSRCSTACPRGSRNIKEAWTATEQLQFTVYAAHGISSNWVSNYEKYYLICSLSHNGKDLFKPIQSKKVGTYKNFFYLIKWDELIIFPIQISQLPLESVLHLTLFGVLNQSSGSSPDSNKQRKGPEALGKVSLTLFDFKRFLTCGTKLLYLWTSSHTNSIPGAIPKKSYVMERIVLQVDFPSPAFDIIYTSPQIDRNIIQQDKLETLESDIKGKLLDIIHRDSSFGLSKEDKVFLWENRYYCLKHPNCLPKILASAPNWKWANLAKTYSLLHQWPPLCPLAALELLDAKFADQEVRSLAVSWMEAISDDELADLLPQFVQALKYEIYLNSSLVRFLLSRALGNIQIAHSLYWLLKDALHDTHFGSRYEHVLGALLSVGGKGLREELSKQMKLVQLLGGVAEKVRQASGSTRQVVLQKSMERVQSFFLRNKCRLPLKPSLVAKELNIKSCSFFSSNAMPLKVTMVNADPLGEEINVMFKVGEDLRQDMLALQMIKIMDKIWLKEGLDLRMVIFRCLSTGRDRGMVELVPASDTLRKIQVEYGVTGSFKDKPLAEWLRKYNPSEEEYEKASENFIYSCAGCCVATYVLGICDRHNDNIMLRSTGHMFHIDFGKFLGHAQMFGSFKRDRAPFVLTSDMAYVINGGEKPTIRFQLFVDLCCQAYNLIRKQTNLFLNLLSLMIPSGLPELTSIQDLKYVRDALQPQTTDAEATIFFTRLIESSLGSIATKFNFFIHNLAQLRFSG
chain 2: GAVKLSVSYRNGTLFIMVMHIKDLVTEDGADPNPYVKTYLLPDTHKTSKRKTKISRKTRNPTFNEMLVYSGYSKETLRQRELQLSVLSAESLRENFFLGGITLPLKDFNLSKETVKWYQLTAATYL

Variants of: B1
Assay: GST pull-down, SDS-PAGE with Coomassie Blue staining, quantified with ImageJ; n = 3; binding of WT set to 100%; parent: 100; read off a plot

Variant	percent of parent [%]
chain 1 K50A, chain 1 W82A, chain 1 D85A, chain 1 D86A	~42
